Test results reported in publication PMC7171158.

Target: NusA-AR2^D443C labeled with fluorescein-5-maleimide (E. coli) (UniProt P0AFF6)
Assay: fluorescence polarisation; fluorescence anisotropy; 25 nM fluorescein-labeled NusA-AR2^D443C with increasing unlabeled protein; 25 °C; 50 mM Na-P pH 6.5, 100 mM NaCl, 150 mM glucose, 5 mM DTT, 0.05% Tween; two-state binding model

C-terminal domain of the RNA polymerase α subunit (αCTD) (domain or fragment)
Kd: 8 µM
